Test results from article PMC4047056.

Molecular target: Kv2.1 subunit (unlabeled) (human) (UniProt Q14721)

B1: Kv6.4 subunit (unlabeled) (natural protein)
chain: MPMPSRDGGLHPRHHHYGSHSPWSQLLSSPMETPSIKGLYYRRVRKVGALDASPVDLKKEILINVGGRRYLLPWSTLDRFPLSRLSKLRLCRSYEEIVQLCDDYDEDSQEFFFDRSPSAFGVIVSFLAAGKLVLLQEMCALSFQEELAYWGIEEAHLERCCLRKLLRKLEELEELAKLHREDVLRQQRETRRPASHSSRWGLCMNRLREMVENPQSGLPGKVFACLSILFVATTAVSLCVSTMPDLRAEEDQGECSRKCYYIFIVETICVAWFSLEFCLRFVQAQDKCQFFQGPLNIIDILAISPYYVSLAVSEEPPEDGERPSGSSYLEKVGLVLRVLRALRILYVMRLARHSLGLQTLGLTVRRCTREFGLLLLFLAVAITLFSPLVYVAEKESGRVLEFTSIPASYWWAIISMTTVGYGDMVPRSVPGQMVALSSILSGILIMAFPATSIFHTFSHSYLELKKEQEQLQARLRHLQNTGPASECELLDPHVASEHELMNDVNDLILEGPALPIMHM
midpoint of the voltage dependence of inactivation, V1/2, of whole-cell currents in HEK293 cells co-expressing Kv2.1 and Kv6.4 (Kv2.1 alone: −22.6 mV): -59.3 mV
